Assay results: US20210115146A1 (WUXI BIOLOGICS IRELAND, published 2021)

B1: W5626-2C10.VHH (VHH)
VHH: AVQLVESGGGLVQAGGSLTLSCAASGRTFSSYAMGWFRQAPGKEREFVAADRWSGGNTRYADSVKGRFTISRDNAKNTVYLQMNSLKPEDTAVYYCAATYLSSDYEWGVPPKAYDYDYWGQGTQVTVSS
notes: c-Myc and his-tagged VHH fragment made in E. coli BL21; not shown: 6-his and c-Myc tags fused at the C-terminus
B2: W5626-2C10-z5 (VHH) (VHH)
VHH: AVQLVESGGGLVQPGGSLTLSCAASGRTFSSYAMGWFRQAPGKEREFVAADRWSGGNTRYADSVKGRFTISRDNAKNTLYLQMNSLRAEDTAVYYCAATYLSSDYEWGVPPKAYDYDYWGQGTLVTVSS
notes: also called c-Myc and his-tagged VHH fragment of W5626-2C10-z5; not shown: c-Myc and his tags
B3: W5626-2C2.VHH (VHH)
VHH: EVQLVESGGGLVQAGDSLRLSCAASGRTHSNYVMGWFRQAPGQEREFVAGISRTYGNTYYRDSVEGRFTISVDNPKNTVYLQMNSLKPEDTAVYYCAADPTRSEVILTTSHRYVYWGQGTLVTVSS
notes: as for B1
B4: W5626-2C2-z22 (VHH) (VHH)
VHH: EVQLVESGGGLVQPGGSLRLSCAASGRTHSNYVMGWFRQAPGQEREFVAGISRTYGNTYYRDSVEGRFTISRDNSKNTLYLQMNSLRAEDTAVYYCAADPTRSEVILTTSHRYVYWGQGTLVTVSS
notes: also called c-Myc and his-tagged VHH fragment of W5626-2C2-z22; not shown: c-Myc and his tags

How the values were obtained:
[1] = molecular target: T1, human EGFRvIII (cell surface) (human, UniProt P00533 25-1210); test: FACS on EGFRvIII transfected cells, anti-c-Myc-biotin and streptavidin-PE
T1 construct: whole, on cells; also called hEGFRIII; EGFR variant III

[2] = molecular target: T2, human EGFR (cell surface) (human, UniProt P00533 25-1210); test: FACS competition, competitor W5626-2C10-z5; lower panel 'Binning with W5626-2C10-z5'; cells not named on the sheet, A431 in the example
T2 construct: whole, on cells; also called W562-CHO-K1.hPro1.E9 cells; A431 cells

[3] = molecular target: T2, human EGFR (cell surface); test: FACS competition, competitor W5626-2C2-z22; upper panel 'Binning with W5626-2C2-z22'; cells not named on the sheet, A431 in the example
HER3.his [4] = molecular target: T3, HER3.his (Homo sapiens (Human), UniProt P21860 20-643); test: ELISA, antigen coated at 2 µg/mL, anti-cMyc-HRP detection
Experimental: (§1) Non-specific binding ELISA was performed in 96-well high binding plates (Nunc-Immuno Plate, Thermo Scientific). The plate was coated with various antigens at 2 μg/mL overnight at 4° C. […] The plates were subsequently incubated with the secondary antibody Goat anti-cMyc-HRP (Bethyl) for additional 1 hour. The HRP signal was detected by adding TMB substrate and the reaction was stopped after 12 minutes using 2M HCl. The absorbance at 450 nm was read using a microplate reader (Molecular Device). All incubation steps were performed at room temperature. The plate was washed with PBST (0.05% Tween20-PBS) between each step.

4-1BB.his [5] = molecular target: T4, 4-1BB.his (Homo sapiens (Human), UniProt Q07011 24-186); test: as above
T4 sequence (Q07011 24-186 limits assumed): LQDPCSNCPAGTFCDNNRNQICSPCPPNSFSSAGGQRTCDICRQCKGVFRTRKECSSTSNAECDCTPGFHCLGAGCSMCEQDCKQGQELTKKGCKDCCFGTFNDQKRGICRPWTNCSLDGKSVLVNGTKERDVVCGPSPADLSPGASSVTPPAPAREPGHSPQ
Experimental: as §1

HSA [6] = molecular target: T5, HSA (UniProt P02768 25-609); test: as above
Experimental: as §1

Factor Eight = test: non-specific binding ELISA, 10 µg/ml VHH on coated antigen
Experimental: as §1

FGFR.his = test: as above
Experimental: as §1

CD147 = test: as above
Experimental: as §1

PD-1.his = test: as above
Chain of PD-1.his (Q15116 25-170): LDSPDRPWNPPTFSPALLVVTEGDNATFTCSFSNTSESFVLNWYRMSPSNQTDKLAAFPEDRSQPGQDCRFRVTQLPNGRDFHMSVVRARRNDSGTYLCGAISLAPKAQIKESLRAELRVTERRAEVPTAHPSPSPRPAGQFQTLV
Experimental: as §1

CTLA4.his = test: as above
Chain of CTLA4.his (P16410 36-161): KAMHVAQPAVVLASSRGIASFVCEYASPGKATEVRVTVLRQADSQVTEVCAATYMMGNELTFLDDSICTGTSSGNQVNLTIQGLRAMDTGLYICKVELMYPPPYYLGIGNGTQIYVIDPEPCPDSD
Experimental: as §1

W317-hPro1.ECD.his = test: as above
Experimental: as §1

CD22.his = test: as above
Experimental: as §1

VEGF.his = test: as above
Experimental: as §1

CD3.his = test: as above
Experimental: as §1

HER3.his [7] = molecular target: T3, HER3.his; test: as above
Experimental: as §1

OX40.his = test: as above
Chain of OX40.his (P43489 29-214): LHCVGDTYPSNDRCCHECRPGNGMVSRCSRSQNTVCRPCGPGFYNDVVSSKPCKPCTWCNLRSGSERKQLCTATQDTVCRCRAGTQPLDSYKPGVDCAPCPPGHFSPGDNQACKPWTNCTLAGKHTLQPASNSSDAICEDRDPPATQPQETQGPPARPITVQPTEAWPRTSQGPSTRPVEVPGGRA
Experimental: as §1

4-1BB.his [8] = molecular target: T4, 4-1BB.his; test: as above
Experimental: as §1

CD40 = test: as above
Chain of CD40 (P25942 21-193): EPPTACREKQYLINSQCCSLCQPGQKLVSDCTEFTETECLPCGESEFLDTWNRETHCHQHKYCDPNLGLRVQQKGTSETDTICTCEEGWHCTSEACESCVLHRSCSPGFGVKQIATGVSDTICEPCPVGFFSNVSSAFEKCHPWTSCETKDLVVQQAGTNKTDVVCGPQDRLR
Experimental: as §1

HSA [9] = molecular target: T5, HSA; test: as above
Experimental: as §1

Row | Binder | EC50 [1] [nM] | IC50 (read off the curve) [2] [nM] | IC50 (read off the curve) [3] [nM] | binding result (HER3.his [4]) | binding result (4-1BB.his [5]) | binding result (HSA [6]) | OD A450 (Factor Eight) [OD A450] | OD A450 (FGFR.his) [OD A450] | OD A450 (CD147) [OD A450] | OD A450 (PD-1.his) [OD A450] | OD A450 (CTLA4.his) [OD A450] | OD A450 (W317-hPro1.ECD.his) [OD A450] | OD A450 (CD22.his) [OD A450] | OD A450 (VEGF.his) [OD A450] | OD A450 (CD3.his) [OD A450] | OD A450 (HER3.his [7]) [OD A450] | OD A450 (OX40.his) [OD A450] | OD A450 (4-1BB.his [8]) [OD A450] | OD A450 (CD40) [OD A450] | OD A450 (HSA [9]) [OD A450]
1 | B1 | 1.08 | ~1 | ~1 |  |  |  |  |  |  |  |  |  |  |  |  |  |  |  |  | 
2 | B2 |  |  |  | no binding (tested: 10 µg/ml) | no binding (tested: 10 µg/ml) | no binding (tested: 10 µg/ml) | 0.04 | 0.05 | 0.04 | 0.04 | 0.04 | 0.05 | 0.05 | 0.05 | 0.04 | 0.04 | 0.04 | 0.05 | 0.05 | 0.05
3 | B3 | 2.41 | ~1 | ~2 |  |  |  |  |  |  |  |  |  |  |  |  |  |  |  |  | 
4 | B4 |  |  |  | no binding (tested: 10 µg/ml) | no binding (tested: 10 µg/ml) | no binding (tested: 10 µg/ml) | 0.05 | 0.05 | 0.06 | 0.06 | 0.07 | 0.07 | 0.06 | 0.07 | 0.06 | 0.06 | 0.05 | 0.06 | 0.06 | 0.07
